# Where two headings read alike, the source gives them in different places.
# T1: Hrp48-RRM12;Sxl-dRBD3;Unr-CSD12 (Drosophila melanogaster;Drosophila …, UniProt P48809;P19339;B7Z0E2 1-173;123-294;186-337, ||)
# T1 sequence 1: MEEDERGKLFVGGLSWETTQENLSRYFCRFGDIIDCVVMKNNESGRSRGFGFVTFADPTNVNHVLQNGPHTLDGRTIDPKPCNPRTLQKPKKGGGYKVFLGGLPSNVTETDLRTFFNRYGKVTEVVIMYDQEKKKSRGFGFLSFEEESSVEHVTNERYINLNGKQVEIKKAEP
# T1 sequence 2: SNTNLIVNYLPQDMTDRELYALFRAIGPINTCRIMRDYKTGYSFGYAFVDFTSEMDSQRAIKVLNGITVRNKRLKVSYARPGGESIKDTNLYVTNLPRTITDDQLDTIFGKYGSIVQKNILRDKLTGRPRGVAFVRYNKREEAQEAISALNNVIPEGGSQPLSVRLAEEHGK
# T1 sequence 3: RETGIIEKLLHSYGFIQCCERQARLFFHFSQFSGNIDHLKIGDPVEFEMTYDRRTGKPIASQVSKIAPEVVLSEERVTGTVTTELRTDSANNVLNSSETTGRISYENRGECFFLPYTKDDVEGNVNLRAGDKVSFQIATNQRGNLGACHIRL
# T2: Sxl-dRBD3;Unr-CSD12 (Drosophila melanogaster;Drosophila …, UniProt P19339;B7Z0E2 123-294;186-337, |)
# T2 sequence 1: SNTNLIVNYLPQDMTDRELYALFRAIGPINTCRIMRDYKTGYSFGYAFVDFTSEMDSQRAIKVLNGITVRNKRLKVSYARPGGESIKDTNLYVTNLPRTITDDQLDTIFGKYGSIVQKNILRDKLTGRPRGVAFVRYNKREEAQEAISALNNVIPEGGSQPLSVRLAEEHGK
# T2 sequence 2: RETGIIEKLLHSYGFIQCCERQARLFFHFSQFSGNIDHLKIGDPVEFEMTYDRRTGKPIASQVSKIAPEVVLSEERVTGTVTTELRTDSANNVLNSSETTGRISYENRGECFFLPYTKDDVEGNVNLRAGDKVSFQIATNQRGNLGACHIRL
# T3: Hrp48-RRM12 (Drosophila melanogaster, UniProt P48809 1-173)
# T3 sequence: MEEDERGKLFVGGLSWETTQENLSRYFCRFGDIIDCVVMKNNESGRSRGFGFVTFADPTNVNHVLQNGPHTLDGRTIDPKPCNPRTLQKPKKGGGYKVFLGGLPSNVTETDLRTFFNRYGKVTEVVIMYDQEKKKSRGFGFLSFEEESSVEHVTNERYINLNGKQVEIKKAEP
# T4: Hrp48-RRM2 (Drosophila melanogaster, UniProt P48809 89-173)
# T4 sequence: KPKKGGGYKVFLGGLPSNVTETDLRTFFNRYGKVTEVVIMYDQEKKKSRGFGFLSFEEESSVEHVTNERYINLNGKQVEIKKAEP
# T5: Hrp48-RRM1 (Drosophila melanogaster, UniProt P48809 1-88)
# T5 sequence: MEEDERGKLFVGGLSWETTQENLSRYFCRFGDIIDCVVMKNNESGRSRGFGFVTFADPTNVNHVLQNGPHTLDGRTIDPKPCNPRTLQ
# What was measured:
# [1] = biological target: T1, Hrp48-RRM12;Sxl-dRBD3;Unr-CSD12; assay: SEC-MALS
# Sxl-dRBD3;Unr-CSD12 [2] = biological target: T2, Sxl-dRBD3;Unr-CSD12; assay: SEC-MALS
# Hrp48-RRM12 [3] = biological target: T3, Hrp48-RRM12; assay: ITC
# Hrp48-RRM2 [4] = biological target: T4, Hrp48-RRM2; assay: NMR
# Hrp48-RRM1 [5] = biological target: T5, Hrp48-RRM1; assay: ITC
# Hrp48-RRM2 [6] = biological target: T4, Hrp48-RRM2; assay: NMR; remark: listed apart in the source
# Hrp48-RRM1 [7] = biological target: T5, Hrp48-RRM1; assay: NMR
# Hrp48-RRM12 [8] = biological target: T3, Hrp48-RRM12; assay: EMSA
# SEC-MALS = biological target: the molecule itself; assay: SEC-MALS
# Hrp48-RRM12 [9] = biological target: T3, Hrp48-RRM12; assay: NMR
# [10] = biological target: T1, Hrp48-RRM12;Sxl-dRBD3;Unr-CSD12; assay: SEC-MALS; remark: listed apart in the source
# Hrp48-RRM12 [11] = biological target: T3, Hrp48-RRM12; assay: ITC; remark: listed apart in the source
# Sxl-dRBD3;Unr-CSD12 [12] = biological target: T2, Sxl-dRBD3;Unr-CSD12; assay: SEC
# Hrp48-RRM1 [13] = biological target: T5, Hrp48-RRM1; assay: ITC; remark: listed apart in the source
# Hrp48-RRM12 [14] = biological target: T3, Hrp48-RRM12; assay: NMR; remark: listed apart in the source
binder,measurement,setting,value
UUUUUUUGAGCACGUGAACCUAGGAUUAAG (ssRNA) [WT-30-mer],binding result,[1],binds
same,binding result,Sxl-dRBD3;Unr-CSD12 [2],binds
UAGGAUUAAG (ssRNA) [10-mer-WT],Kd,Hrp48-RRM12 [3],17.3 ± 2.9 nM
AACCUA (ssRNA) [6-mer-1],binding result,Hrp48-RRM2 [4],no binding
same,Kd,Hrp48-RRM1 [5],1300 nM
AUUAAG (ssRNA) [6-mer-3],binding result,Hrp48-RRM2 [6],binds
same,binding result,Hrp48-RRM1 [7],binds
UUUUUUUGAGCACGUGAAGGUAGGAUUAAG (ssRNA) [GG-30-mer-Cy5],binding result,Hrp48-RRM12 [8],binds
UAGGUUAAG (ssRNA) [9-mer (P-element site)],Kd,Hrp48-RRM12 [3],14.8 ± 3.7 nM
"Hrp48-RRM2 (residues 89-173) (domain or fragment, Drosophila melanogaster, UniProt P48809 89-173, looked up) KPKKGGGYKVFLGGLPSNVTETDLRTFFNRYGKVTEVVIMYDQEKKKSRGFGFLSFEEESSVEHVTNERYINLNGKQVEIKKAEP",stoichiometry N,SEC-MALS,4
UAGG (ssRNA) [4-mer-3],binding result,Hrp48-RRM12 [9],binds
UAGGAU (ssRNA) [6-mer-2],Kd,Hrp48-RRM1 [5],8700 nM
UUUUUUUGAGCACGUGAAGGUAGGAUUAAG (ssRNA) [GG-30-mer],binding result,[10],binds
same,binding result,Hrp48-RRM12 [11],binds
same,binding result,Sxl-dRBD3;Unr-CSD12 [12],binds
AAGAAC (ssRNA) [6-mer-4],binding result,Hrp48-RRM1 [13],binds
same,binding result,Hrp48-RRM2 [6],binds
UAAG (ssRNA) [4-mer-6],binding result,Hrp48-RRM12 [14],binds
